Patent publication US11833164B2, “Methods of treating Fabry disease in patients having a mutation in the GLA gene” (Amicus Therapeutics, Inc., priority 2019, dated 2023)

Test system: mutant form of α-Gal A expressed in HEK-293 cells
Assay: HEK assay (GLP HEK / Migalastat Amenability Assay): α-Gal A activity in lysates of transiently transfected HEK-293 cells incubated with or without 10 μM migalastat
Format: cell-based, human
Settings: for Absolute increase (% WT): 10 μM migalastat versus baseline; for Relative increase: 10 μM migalastat α-Gal A activity relative to baseline; for 10 μM migalastat α-Gal A activity (% WT): 5 days; for 10 μM migalastat α-Gal A activity (% WT) / Baseline α-Gal A activity (% WT): percentage of baseline wild-type α-Gal A activity; for 10 μM migalastat α-Gal A activity (% WT) / Baseline α-Gal A activity (% WT) / Baseline α-Gal A activity / 10 μM migalastat α-Gal A activity: mean ± SEM; for Baseline α-Gal A activity / 10 μM migalastat α-Gal A activity: lysates of HEK-293 cells transfected with the mutant form; for Baseline α-Gal A activity: incubated 5 days in the absence of migalastat; for 10 μM migalastat α-Gal A activity: incubated 5 days with 10 μM migalastat
Outline: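 HEK-293 cells transiently transfected with mutant α-Gal A and incubated with or without 10 μM migalastat; lysate activity given as nmol free 4-MU released per mg protein per hour. Values are mean±SEM.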

B1: H186Q (protein)
chain: MQLRNPELHLGCALALRFLALVSWDIPGARALDNGLARTPTMGWLHWERFMCNLDCQEEPDSCISEKLFMEMAELMVSEGWKDAGYEYLCIDDCWMAPQRDSEGRLQADPQRFPHGIRQLANYVHSKGLKLGIYADVGNKTCAGFPGSFGYYDIDAQTFADWGVDLLKFDGCYCDSLENLADGYKQMSLALNRTGRSIVYSCEWPLYMWPFQKPNYTEIRQYCNHWRNFADIDDSWKSIKSILDWTSFNQERIVDVAGPGGWNDPDMLVIGNFGLSWNQQVTQMALWAIMAAPLFMSNDLRHISPQAKALLQDKDVIAINQDPLGKQGYQLRQGDNFEVWERPLSGLAWAVAMINRQEIGGPRSYTIAVASLGKGVACNPACFITQLLPVKRKLGFYEWTSRLRSHINPTGTVLLQLENTMQMSLKDLL
  Absolute increase (% WT): 28.5 % WT
  Relative increase: 1.4
  10 μM migalastat α-Gal A activity (% WT): 105.3 ± 7 % WT
  Baseline α-Gal A activity: 28845 ± 2365 nmol/mg/h
  10 μM migalastat α-Gal A activity: 38865 ± 2966 nmol/mg/h
Absence of migalastat
  Baseline α-Gal A activity (% WT): 76.9 ± 4.3 % WT

B2: S188F (protein)
chain: MQLRNPELHLGCALALRFLALVSWDIPGARALDNGLARTPTMGWLHWERFMCNLDCQEEPDSCISEKLFMEMAELMVSEGWKDAGYEYLCIDDCWMAPQRDSEGRLQADPQRFPHGIRQLANYVHSKGLKLGIYADVGNKTCAGFPGSFGYYDIDAQTFADWGVDLLKFDGCYCDSLENLADGYKHMFLALNRTGRSIVYSCEWPLYMWPFQKPNYTEIRQYCNHWRNFADIDDSWKSIKSILDWTSFNQERIVDVAGPGGWNDPDMLVIGNFGLSWNQQVTQMALWAIMAAPLFMSNDLRHISPQAKALLQDKDVIAINQDPLGKQGYQLRQGDNFEVWERPLSGLAWAVAMINRQEIGGPRSYTIAVASLGKGVACNPACFITQLLPVKRKLGFYEWTSRLRSHINPTGTVLLQLENTMQMSLKDLL
  Absolute increase (% WT): 36.4 % WT
  Relative increase: 2.8
  10 μM migalastat α-Gal A activity (% WT): 57.1 ± 2.8 % WT
  Baseline α-Gal A activity: 7746 ± 839 nmol/mg/h
  10 μM migalastat α-Gal A activity: 21273 ± 1477 nmol/mg/h
Absence of migalastat
  Baseline α-Gal A activity (% WT): 20.7 ± 2 % WT

B3: S188P (protein)
chain: MQLRNPELHLGCALALRFLALVSWDIPGARALDNGLARTPTMGWLHWERFMCNLDCQEEPDSCISEKLFMEMAELMVSEGWKDAGYEYLCIDDCWMAPQRDSEGRLQADPQRFPHGIRQLANYVHSKGLKLGIYADVGNKTCAGFPGSFGYYDIDAQTFADWGVDLLKFDGCYCDSLENLADGYKHMPLALNRTGRSIVYSCEWPLYMWPFQKPNYTEIRQYCNHWRNFADIDDSWKSIKSILDWTSFNQERIVDVAGPGGWNDPDMLVIGNFGLSWNQQVTQMALWAIMAAPLFMSNDLRHISPQAKALLQDKDVIAINQDPLGKQGYQLRQGDNFEVWERPLSGLAWAVAMINRQEIGGPRSYTIAVASLGKGVACNPACFITQLLPVKRKLGFYEWTSRLRSHINPTGTVLLQLENTMQMSLKDLL
  Absolute increase (% WT): 3.2 % WT
  10 μM migalastat α-Gal A activity (% WT): 3.2 ± 0.2 % WT
  10 μM migalastat α-Gal A activity: 1159 ± 61 nmol/mg/h
Absence of migalastat, mean activity below the limit of detection (<142 nmol/mg/hr)
  Baseline α-Gal A activity (nmol/mg/hr): BLD (“BLD” indicates that the mean α-Gal A activity was below the limit of detection (<142 nmol/mg/hr))

B4: H186Y (protein)
chain: MQLRNPELHLGCALALRFLALVSWDIPGARALDNGLARTPTMGWLHWERFMCNLDCQEEPDSCISEKLFMEMAELMVSEGWKDAGYEYLCIDDCWMAPQRDSEGRLQADPQRFPHGIRQLANYVHSKGLKLGIYADVGNKTCAGFPGSFGYYDIDAQTFADWGVDLLKFDGCYCDSLENLADGYKYMSLALNRTGRSIVYSCEWPLYMWPFQKPNYTEIRQYCNHWRNFADIDDSWKSIKSILDWTSFNQERIVDVAGPGGWNDPDMLVIGNFGLSWNQQVTQMALWAIMAAPLFMSNDLRHISPQAKALLQDKDVIAINQDPLGKQGYQLRQGDNFEVWERPLSGLAWAVAMINRQEIGGPRSYTIAVASLGKGVACNPACFITQLLPVKRKLGFYEWTSRLRSHINPTGTVLLQLENTMQMSLKDLL
  Absolute increase (% WT): 39.8 % WT
  Relative increase: 1.4
  10 μM migalastat α-Gal A activity (% WT): 123.6 ± 8.9 % WT
  Baseline α-Gal A activity: 37644 ± 2421 nmol/mg/h
  10 μM migalastat α-Gal A activity: 53613 ± 2581 nmol/mg/h
Absence of migalastat
  Baseline α-Gal A activity (% WT): 83.8 ± 4.5 % WT

B5: M187L (protein)
chain: MQLRNPELHLGCALALRFLALVSWDIPGARALDNGLARTPTMGWLHWERFMCNLDCQEEPDSCISEKLFMEMAELMVSEGWKDAGYEYLCIDDCWMAPQRDSEGRLQADPQRFPHGIRQLANYVHSKGLKLGIYADVGNKTCAGFPGSFGYYDIDAQTFADWGVDLLKFDGCYCDSLENLADGYKHLSLALNRTGRSIVYSCEWPLYMWPFQKPNYTEIRQYCNHWRNFADIDDSWKSIKSILDWTSFNQERIVDVAGPGGWNDPDMLVIGNFGLSWNQQVTQMALWAIMAAPLFMSNDLRHISPQAKALLQDKDVIAINQDPLGKQGYQLRQGDNFEVWERPLSGLAWAVAMINRQEIGGPRSYTIAVASLGKGVACNPACFITQLLPVKRKLGFYEWTSRLRSHINPTGTVLLQLENTMQMSLKDLL
  Absolute increase (% WT): 29.2 % WT
  Relative increase: 6.7
  10 μM migalastat α-Gal A activity (% WT): 34.5 ± 1.9 % WT
  Baseline α-Gal A activity: 1924 ± 64 nmol/mg/h
  10 μM migalastat α-Gal A activity: 12810 ± 929 nmol/mg/h
Absence of migalastat
  Baseline α-Gal A activity (% WT): 5.3 ± 0.2 % WT

B6: S188A (protein)
chain: MQLRNPELHLGCALALRFLALVSWDIPGARALDNGLARTPTMGWLHWERFMCNLDCQEEPDSCISEKLFMEMAELMVSEGWKDAGYEYLCIDDCWMAPQRDSEGRLQADPQRFPHGIRQLANYVHSKGLKLGIYADVGNKTCAGFPGSFGYYDIDAQTFADWGVDLLKFDGCYCDSLENLADGYKHMALALNRTGRSIVYSCEWPLYMWPFQKPNYTEIRQYCNHWRNFADIDDSWKSIKSILDWTSFNQERIVDVAGPGGWNDPDMLVIGNFGLSWNQQVTQMALWAIMAAPLFMSNDLRHISPQAKALLQDKDVIAINQDPLGKQGYQLRQGDNFEVWERPLSGLAWAVAMINRQEIGGPRSYTIAVASLGKGVACNPACFITQLLPVKRKLGFYEWTSRLRSHINPTGTVLLQLENTMQMSLKDLL
  Absolute increase (% WT): 25.7 % WT
  Relative increase: 1.4
  10 μM migalastat α-Gal A activity (% WT): 86.3 ± 4.9 % WT
  Baseline α-Gal A activity: 22589 ± 1833 nmol/mg/h
  10 μM migalastat α-Gal A activity: 32197 ± 2515 nmol/mg/h
Absence of migalastat
  Baseline α-Gal A activity (% WT): 60.6 ± 4 % WT

B7: S188C (protein)
chain: MQLRNPELHLGCALALRFLALVSWDIPGARALDNGLARTPTMGWLHWERFMCNLDCQEEPDSCISEKLFMEMAELMVSEGWKDAGYEYLCIDDCWMAPQRDSEGRLQADPQRFPHGIRQLANYVHSKGLKLGIYADVGNKTCAGFPGSFGYYDIDAQTFADWGVDLLKFDGCYCDSLENLADGYKHMCLALNRTGRSIVYSCEWPLYMWPFQKPNYTEIRQYCNHWRNFADIDDSWKSIKSILDWTSFNQERIVDVAGPGGWNDPDMLVIGNFGLSWNQQVTQMALWAIMAAPLFMSNDLRHISPQAKALLQDKDVIAINQDPLGKQGYQLRQGDNFEVWERPLSGLAWAVAMINRQEIGGPRSYTIAVASLGKGVACNPACFITQLLPVKRKLGFYEWTSRLRSHINPTGTVLLQLENTMQMSLKDLL
  Absolute increase (% WT): 18.5 % WT
  Relative increase: 1.4
  10 μM migalastat α-Gal A activity (% WT): 68.6 ± 4.3 % WT
  Baseline α-Gal A activity: 18465 ± 1552 nmol/mg/h
  10 μM migalastat α-Gal A activity: 25569 ± 2083 nmol/mg/h
Absence of migalastat
  Baseline α-Gal A activity (% WT): 50.1 ± 3.7 % WT
